Experimental findings from US20140208457, “Nuclease Fusion Protein and Uses Thereof” (BASF PLANT SCIENCE COMPANY GMBH, published 2014) are described below.

The target of the data set is T1, P(T46G,Y94F)-L(6)-Ss* PvuII/I-SceI fusion protein (artificial (Proteus vulgaris PvuII; …).
T1 chain: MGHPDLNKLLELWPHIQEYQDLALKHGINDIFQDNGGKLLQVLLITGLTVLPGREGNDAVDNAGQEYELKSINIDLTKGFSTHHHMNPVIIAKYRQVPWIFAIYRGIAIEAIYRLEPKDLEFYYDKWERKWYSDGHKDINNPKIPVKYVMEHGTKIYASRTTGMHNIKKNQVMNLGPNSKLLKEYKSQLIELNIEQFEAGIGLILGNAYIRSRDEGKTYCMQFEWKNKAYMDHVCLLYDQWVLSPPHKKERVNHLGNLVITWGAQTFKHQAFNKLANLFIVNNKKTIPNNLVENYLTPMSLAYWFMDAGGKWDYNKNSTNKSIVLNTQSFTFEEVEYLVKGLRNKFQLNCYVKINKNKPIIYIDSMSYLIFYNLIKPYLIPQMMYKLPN
The data set is described as follows: EMSA; 1-150 nM enzyme, 2 nM DNA, KG buffer without Mg, room temperature. The settings on record: tags: C-terminal Strep-tag (vector pASK-IBA63b-plus), chain copies: 2 (inferred, PvuII homodimer). On the procedure: For the determination of binding constants of the fusion enzymes, EMSAs with radioactive labeled PCR-fragments were done. The shift fragments were created via PCR using [α³²P] dATP. One fragment contained the addressed site (S6P6S; A), just an I-SceI site (S; B) or just a PvuII site (P; C). 2 nM of the radiolabeled substrate were incubated with fusion enzyme at concentrations ranging from 1-150 nM in optimized KG Buffer without magnesium for 30 min at room temperature. After adding 1 μl 87% glycerol the samples were loaded onto a 6% polyacrylamid Tris-Acetate (pH 8.5) gel and run for 2 h at 10V/cm. The bands were visualized using the InstantImager system (Packard).

B1: S6P6S tripartite site I-SceI-PvuII-I-SceI (dsDNA)
DNA 1: TAGGGATAACAGGGTAATGGTACTCAGCTGATTCATATTACCCTGTTATCCCTA
DNA 2: TAGGGATAACAGGGTAATATGAATCAGCTGAGTACCATTACCCTGTTATCCCTA
Take B1: the binding result (label: 32P (EMSA PCR fragment)) was “binds”.

B2: S, I-SceI site only (dsDNA)
DNA 1: TAGGGATAACAGGGTAAT
DNA 2: ATTACCCTGTTATCCCTA
Turning to B2, the binding result (label: 32P (PCR fragment)) was “no binding”.
